In publication PMC3549491, “Structural Basis of the Intracellular Sorting of the SNARE VAMP7 by the AP3 Adaptor Complex” (Developmental Cell, 2012) one finds Kd data, which are given here for 3 molecules.

A value given as a limit tells only on which side of the number the result lay.

The target in experiment [1] is T1, VAMP7 longin domain (UniProt P70280 1-120).
T1 chain: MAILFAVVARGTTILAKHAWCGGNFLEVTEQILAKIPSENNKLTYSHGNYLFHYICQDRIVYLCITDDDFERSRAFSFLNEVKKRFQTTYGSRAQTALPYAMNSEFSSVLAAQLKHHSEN
The experiment in a line: ITC. On the technique in general: Isothermal titration calorimetry measures the heat released or taken up as one component is titrated into another.

The target in experiment [2] is T2, VAMP7 longin domain (UniProt P70280 1-120).
T2 construct: VAMP7 (Ti-VAMP), longin domain; also called VAMP7LD; VAMP longin domain
T2 sequence (looked up): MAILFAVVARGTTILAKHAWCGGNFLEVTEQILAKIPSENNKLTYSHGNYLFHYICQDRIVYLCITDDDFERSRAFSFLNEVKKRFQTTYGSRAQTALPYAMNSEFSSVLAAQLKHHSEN
The experiment in a line: ITC; Microcal Auto-iTC200; VAMP7 longin domain in the cell at 0.15–0.2 mM, GST delta constructs at 0.8–1.2 mM titrated; 50 mM HEPES pH 7.4, 200 mM NaCl, 4 mM ß-mercaptoethanol. As to conditions: both partners purified.

Experiment [3] addresses VAMP7 longin domain L43S/Y45S (UniProt P70280 1-120, L43S | Y45S). Briefly: ITC.

In the experiment with VAMP7 longin domain [1], PFYIKSSPSPQKRYQDTPGVEHSPSVQIDLSVPLKVPGLPMSDQYVKLE (domain or fragment) [GST δ-adaptin (680–728) I702S/V704S] came in with a Kd above 300 µM.

B1: GST δ-adaptin (680–728) (domain or fragment, UniProt O14617-5 680-728, looked up)
chain: PFYIKSSPSPQKRYQDTPGVEHIPVVQIDLSVPLKVPGLPMSDQYVKLE
notes: source: Rosetta2(DE3)pLysS, purified (glutathione-Sepharose, Superdex 75)
For the molecule B1, the equilibrium dissociation constant (Kd) in the experiment with VAMP7 longin domain [2] was 14 µM; in experiment [3] it was above 300 µM. The molecule PFYIKSSPSPQKRYQDTPGVEHIPVVQIDSSVPSKVPGLPMSDQYVKLE (domain or fragment) [GST δ-adaptin (680–728) L709S/L713S] displayed a dissociation constant (Kd) with VAMP7 longin domain [1] above 300 µM.

The term Kd denotes a measure of binding affinity in units of concentration. Read a low Kd as a tighter complex.
